Assay results reported in article PMC9839372 (2023).

B1: GFP-tagged PRR14 (1-212) wild-type fragment [human] / Heterochromatin Protein 1 beta (HP1β) [human (endogenous in Lenti-X 293T)] (parent complex)
chain 1: MDLPGDSSPPGQPRLCRQPLTRALWGARSPKRPRLQLPGAPSPLEKASRRVLAVVLEDVMAVHMVPVVPSKQTSIPQHHSYHQDPVHRQPPASPPRQAGWSSQARPPDPLCLCREPLSRIHRTSSTLRRRSRTTPGPEEGPSQKVDRAPQPTLVVMLEDIASPRPPAEGFIDETPNFIIPAQRAEPMRIVRQPTPPPGDLEPPFQPSALPAD
chain 2: not shown
B2: GFP-tagged PRR14 (1-212) wild-type fragment [human] / Heterochromatin Protein 1 gamma (HP1γ) [human (endogenous in Lenti-X 293T)] (parent complex)
chain 1: B1 chain 1
chain 2: not shown

Variants of: B1
Assay: co-immunoprecipitation (anti-GFP IP) with Western blot, band intensity quantified; lysates of 293T cells expressing GFP-PRR14 (1-212) constructs; n = 3 independent immunoprecipitations; parent: 91; read off a plot

Which response does the source give for chain 1 V154E, chain 1 V155E here?
The response was ~91.

With chain 1 V54E, chain 1 V55E as the variant, how does the response read?
Its response is ~35.

For chain 1 V54E, chain 1 V55E, chain 1 V154E, chain 1 V155E, which response is on record?
Its response is ~43.

Variants of: B2
Assay: co-immunoprecipitation (anti-GFP IP) with Western blot, band intensity quantified; lysates of 293T cells expressing GFP-PRR14 (1-212) constructs; n = 3 independent immunoprecipitations; parent: 95; read off a plot

chain 1 V54E, chain 1 V55E, chain 1 V154E, chain 1 V155E was tested. Which response did it give?
The response was ~6.

How did the response turn out when chain 1 V154E, chain 1 V155E was run?
The response was ~95.

Which response does the source give for chain 1 V54E, chain 1 V55E here?
Its response is ~17.
